# B1: Saccharomyces cerevisiae var. boulardii cytosolic aldehyde dehydrogenase Ald6p (wild-type) (enzyme, UniProt P54115 1-500, looked up)
# chain: MTKLHFDTAEPVKITLPNGLTYEQPTGLFINNKFMKAQDGKTYPVEDPSTENTVCEVSSATTEDVEYAIECADRAFHDTEWATQDPRERGRLLSKLADELESQIDLVSSIEALDNGKTLALARGDVTIAINCLRDAAAYADKVNGRTINTGDGYMNFTTLEPVGVCGQIIPWNFPIMMLAWKIAPALAMGNVCILKPAAVTPLNALYFASLCKKVGIPAGVVNIVPGPGRTVGAALTNDPRIRKLAFTGSTEVGKSVAVDSSESNLKKITLELGGKSAHLVFDDANIKKTLPNLVNGIFKNAGQICSSGSRIYVQEGIYDELLAAFKAYLETEIKVGNPFDKANFQGAITNRQQFDTIMNYIDIGKKEGAKILTGGEKVGDKGYFIRPTVFYDVNEDMRIVKEEIFGPVVTVAKFKTLEEGVEMANSSEFGLGSGIETESLSTGLKVAKMLKAGTVWINTYNDFDSRVPFGGVKQSGYGREMGEEVYHAYTEVKAVRIKL
# notes: Ald6p, cytosolic aldehyde dehydrogenase of S. cerevisiae var. boulardii NCYC 3264; differs from the S. cerevisiae S288c protein by valine for isoleucine at position 163; printed mass 54.4 kDa; Removal of the tag is not mentioned; also called cytosolic Ald6p; wild-type Ald6p; source: E. coli Rosetta (DE3), purified (cobalt agarose, dialysis)
# Assays:
# [1] = target: Saccharomyces cerevisiae var. boulardii mitochondrial aldehyde dehydrogenase Ald4p (Saccharomyces cerevisiae var. boulardii (NCYC 3264)) (UniProt P46367); experiment: SEC; Sephacryl S-300, buffer G (50 mM Tris/HCl, 17 mM Tris-base, 150 mM NaCl, pH 7.4), 1 ml/min; 200 ul of 60 uM protein by the methods (legend: Ald4p ~20 uM, Ald6p ~60 uM); mass from calibration with standard proteins
# [2] = target: the molecule itself; experiment: cross-linking; BS3 (50-800 uM) with 15 uM protein in 100 mM sodium phosphate pH 7.4, 30 C, 35 min; products on SDS/PAGE (10% gel)
# [3] = target: the molecule itself; experiment: SDS/PAGE of the untreated purified protein (SDS- and heat-resistant oligomers); purified protein without cross-linker on SDS/PAGE (10% gel); band not reduced by additional DTT (2 mM)
# [4] = target: the molecule itself; experiment: SEC; Sephacryl S-300, buffer G (50 mM Tris/HCl, 17 mM Tris-base, 150 mM NaCl, pH 7.4), 1 ml/min; 200 ul of 60 uM protein by the methods (legend: Ald4p ~20 uM, Ald6p ~60 uM); mass from calibration with standard proteins
Molecule,stoichiometry N [1],stoichiometry N [2],stoichiometry N [3],stoichiometry N [4]
Saccharomyces cerevisiae var. boulardii mitochondrial aldehyde dehydrogenase Ald4p (from UniProt P46367 25-519) (enzyme),3,–,–,–
B1,–,2,~4,4
